# What was measured:
# [1] = target: T1, HCV E1 and E2 proteins (C22E1E2, genotype 1a) (Hepatitis C virus genotype 1a, UniProt P27958, H297R/K360A/N321D/N391S/R602W/V212I/Y589H); assay type: cell-based
# T1 construct: residues 24-215 are E1, and residues 216-577 are E2; expressed in transfected cells; host or cells: 293T effector cells transfected with pcDNA3.1-HE1E2, co-cultured with Huh-7.5 target cells
# [2] = test system: HCV pseudoparticles; settings: reports; cited from earlier work
Sequence,"effect on HCV E1E2 mediated fusion ([1]; peptide added to cells for an hour before fusion, concentrations up to 10 mM)",inhibition of transduction with pseudoparticles [2],inhibition of HCV E1E2 mediated fusion ([1]; peptide added to cells at concentrations of 10 nM or above for an hour before fusion) [%]
SAYQVRNSSGLYHVTNDC,little effect,does not,
SSGLYHVTNDCPNSSIVY,,inhibits,~40
